Experimental data from patent US20050090448A1 (BAXTER INTERNATIONAL, published 2005).
Bridges are numbered along the chain shown (N, C = ends). Where no end group is shown, it is not given here.

Target: complement component C5 in pooled human plasma (human, UniProt P01031 19-1676)
Experiment: cell-based or functional assay

Sequence of complement component C5 in pooled human plasma (P01031 19-1676 limits assumed): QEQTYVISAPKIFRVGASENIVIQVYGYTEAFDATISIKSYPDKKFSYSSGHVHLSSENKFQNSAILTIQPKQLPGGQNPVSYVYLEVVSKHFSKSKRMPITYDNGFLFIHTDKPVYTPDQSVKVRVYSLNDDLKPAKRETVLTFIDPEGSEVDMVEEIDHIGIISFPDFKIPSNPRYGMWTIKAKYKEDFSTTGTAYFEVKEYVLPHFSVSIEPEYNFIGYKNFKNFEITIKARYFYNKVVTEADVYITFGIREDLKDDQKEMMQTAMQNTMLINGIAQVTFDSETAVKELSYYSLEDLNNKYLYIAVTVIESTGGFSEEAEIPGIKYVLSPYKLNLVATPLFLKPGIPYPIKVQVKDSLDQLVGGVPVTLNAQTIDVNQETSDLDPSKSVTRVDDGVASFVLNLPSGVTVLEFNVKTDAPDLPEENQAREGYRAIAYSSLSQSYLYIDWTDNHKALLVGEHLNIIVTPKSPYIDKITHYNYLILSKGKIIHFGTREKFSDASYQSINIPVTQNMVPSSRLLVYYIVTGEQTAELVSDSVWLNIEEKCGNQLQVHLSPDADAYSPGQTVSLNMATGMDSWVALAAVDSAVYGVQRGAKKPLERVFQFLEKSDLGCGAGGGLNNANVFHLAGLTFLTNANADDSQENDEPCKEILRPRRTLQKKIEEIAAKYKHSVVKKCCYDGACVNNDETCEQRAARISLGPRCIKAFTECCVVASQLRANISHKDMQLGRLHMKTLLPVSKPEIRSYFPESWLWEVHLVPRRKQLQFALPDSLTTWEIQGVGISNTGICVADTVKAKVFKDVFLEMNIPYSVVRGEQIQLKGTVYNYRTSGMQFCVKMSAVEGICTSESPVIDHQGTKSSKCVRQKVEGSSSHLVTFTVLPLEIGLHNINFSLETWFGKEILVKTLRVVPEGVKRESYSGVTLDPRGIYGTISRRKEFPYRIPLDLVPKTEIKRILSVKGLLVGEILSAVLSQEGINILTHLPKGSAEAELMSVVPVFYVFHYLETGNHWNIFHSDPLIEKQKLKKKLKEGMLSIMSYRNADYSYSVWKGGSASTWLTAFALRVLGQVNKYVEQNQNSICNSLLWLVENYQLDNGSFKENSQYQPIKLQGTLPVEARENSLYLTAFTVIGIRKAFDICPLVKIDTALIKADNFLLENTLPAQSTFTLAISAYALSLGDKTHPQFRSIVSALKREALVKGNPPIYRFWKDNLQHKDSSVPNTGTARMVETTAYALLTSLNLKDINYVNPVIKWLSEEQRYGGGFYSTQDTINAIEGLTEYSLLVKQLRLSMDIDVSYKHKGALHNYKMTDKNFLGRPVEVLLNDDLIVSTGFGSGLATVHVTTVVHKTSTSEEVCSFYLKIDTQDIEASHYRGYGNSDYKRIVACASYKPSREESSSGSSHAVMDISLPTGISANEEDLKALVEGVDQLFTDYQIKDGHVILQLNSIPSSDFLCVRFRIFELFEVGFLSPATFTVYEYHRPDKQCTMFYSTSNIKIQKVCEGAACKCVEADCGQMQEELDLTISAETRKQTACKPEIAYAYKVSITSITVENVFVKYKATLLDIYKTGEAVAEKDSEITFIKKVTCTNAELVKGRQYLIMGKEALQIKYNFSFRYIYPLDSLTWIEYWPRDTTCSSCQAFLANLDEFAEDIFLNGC

Row | Binder | IC50 of inhibition of classical pathway hemolysis (antibody sensitized sheep erythrocytes, human plasma)
1 | DSTWTNFRWEFY [Peptide 8 (SEQ ID NO 8)] | 5.8 µM
2 | SFNDLLWRWEWP [Peptide 7 (SEQ ID NO 7)] | 48.9 µM
3 | SDMCAAPWLCPV (disulfide 4-10 (inferred)) [Peptide 6 (SEQ ID NO 6)] | 3 µM
4 | TQDNRWEFPLRV [Peptide 13 (SEQ ID NO 13)] | 29.2 µM
